Test results reported in PMC5378873 (Oncogene, 2016).

Biological target: FKBP12 (protein used for ITC) (human, UniProt P62942 1-108)
Assay: ITC

Sequence of FKBP12 (protein used for ITC) (P62942 whole entry): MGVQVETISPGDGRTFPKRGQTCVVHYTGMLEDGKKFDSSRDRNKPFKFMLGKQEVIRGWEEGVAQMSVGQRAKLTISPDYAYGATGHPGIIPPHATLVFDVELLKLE

Kd: 1940 nM
B1: MDM2 (425-491) RING domain (protein used for ITC) (domain or fragment, human, UniProt Q00987 425-491, looked up)
chain: SVESSLPLNAIEPCVICQGRPKNGCIVHGKTGHLMACFTCAKKLKKRNKPCPVCRQPIQMIVLTYFP
